B1: STJ-9 annealed quenched complex (Plus STJ-9 / Negative STJ-9) (dsDNA)
DNA 1: GGTAACTAGCATTCATTTCCCACACCCGTCCCGTCCATAT
DNA 2: ATATGGACGGGACGGGTGT
modifications: 3' amine on plus strand; 5' BHQ2 on negative strand

Tests used:
Ovalbumin = Ovalbumin (UniProt P01012 P01012:2-386); assay: control protein, no fluorescence increase; same conditions; Example 1 likewise no increase; details: tags: Sigma-Aldrich; immobilized on maleic anhydride plate; label: Birch Yellow T1 Evitag quantum dot on plus strand; BHQ2 quencher on negative strand; partial duplex, 3' 19 nt of the aptamer paired, 5' single-stranded overhang
Ovalbumin, sequence (P01012 2-386, one chain of several): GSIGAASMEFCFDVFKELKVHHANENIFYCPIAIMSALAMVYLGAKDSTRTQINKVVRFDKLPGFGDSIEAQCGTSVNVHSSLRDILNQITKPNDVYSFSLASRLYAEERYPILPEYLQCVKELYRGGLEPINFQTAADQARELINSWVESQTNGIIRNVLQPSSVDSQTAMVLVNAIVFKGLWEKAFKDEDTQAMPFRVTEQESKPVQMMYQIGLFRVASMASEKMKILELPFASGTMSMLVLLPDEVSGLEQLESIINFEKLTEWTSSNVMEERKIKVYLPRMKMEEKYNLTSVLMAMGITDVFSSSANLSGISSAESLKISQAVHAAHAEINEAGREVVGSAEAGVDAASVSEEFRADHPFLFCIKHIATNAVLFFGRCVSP

Shiga toxin = Shiga toxin (UniProt Q9FBI2;Q7BQ98 Q9FBI2:23-315,Q7BQ98:21-89)
Shiga toxin, sequence (Q9FBI2 23-315, chain 1 of 2): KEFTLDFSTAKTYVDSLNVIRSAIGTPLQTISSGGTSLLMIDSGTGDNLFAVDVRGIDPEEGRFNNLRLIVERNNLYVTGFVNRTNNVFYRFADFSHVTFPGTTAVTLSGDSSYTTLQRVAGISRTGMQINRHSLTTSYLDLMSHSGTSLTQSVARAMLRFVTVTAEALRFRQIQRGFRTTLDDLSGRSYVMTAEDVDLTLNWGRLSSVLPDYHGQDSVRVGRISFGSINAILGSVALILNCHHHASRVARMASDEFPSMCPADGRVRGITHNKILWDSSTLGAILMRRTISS
Shiga toxin, sequence (Q7BQ98 21-89, chain 2 of 2): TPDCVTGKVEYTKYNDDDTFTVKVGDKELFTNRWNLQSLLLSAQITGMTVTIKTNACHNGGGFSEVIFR

Binder	binding result (Ovalbumin)	binding result (Shiga toxin)
B1	no binding	–
GGTAACTAGCATTCATTTCCCACACCCGTCCCGTCCATAT (ssDNA) [Plus STJ-9]	–	binds
